{
  "source": "paper PMC5896933",
  "about": "(Molecular Biology of the Cell, 2018)",
  "binders": {"B1": {"name": "Cdc48-GFP (natural protein, yeast, UniProt P25694 1-835, looked up)", "chain": "MGEEHKPLLDASGVDPREEDKTATAILRRKKKDNMLLVDDAINDDNSVIAINSNTMDKLELFRGDTVLVKGKKRKDTVLIVLIDDELEDGACRINRVVRNNLRIRLGDLVTIHPCPDIKYATRISVLPIADTIEGITGNLFDVFLKPYFVEAYRPVRKGDHFVVRGGMRQVEFKVVDVEPEEYAVVAQDTIIHWEGEPINREDEENNMNEVGYDDIGGCRKQMAQIREMVELPLRHPQLFKAIGIKPPRGVLMYGPPGTGKTLMARAVANETGAFFFLINGPEVMSKMAGESESNLRKAFEEAEKNAPAIIFIDEIDSIAPKRDKTNGEVERRVVSQLLTLMDGMKARSNVVVIAATNRPNSIDPALRRFGRFDREVDIGIPDATGRLEVLRIHTKNMKLADDVDLEALAAETHGYVGADIASLCSEAAMQQIREKMDLIDLDEDEIDAEVLDSLGVTMDNFRFALGNSNPSALRETVVESVNVTWDDVGGLDEIKEELKETVEYPVLHPDQYTKFGLSPSKGVLFYGPPGTGKTLLAKAVATEVSANFISVKGPELLSMWYGESESNIRDIFDKARAAAPTVVFLDELDSIAKARGGSLGDAGGASDRVVNQLLTEMDGMNAKKNVFVIGATNRPDQIDPAILRPGRLDQLIYVPLPDENARLSILNAQLRKTPLEPGLELTAIAKATQGFSGADLLYIVQRAAKYAIKDSIEAHRQHEAEKEVKVEGEDVEMTDEGAKAEQEPEVDPVPYITKEHFAEAMKTAKRSVSDAELRRYEAYSQQMKASRGQFSNFNFNDAPLGTTATDNANSNNSAPSGAGAAFGSNAEEDDDLYS"}},
  "target": "T1, HA-tagged Ddi1^Δ202-299 (yeast, UniProt P40087 1-428, Δ202-299)",
  "T1 sequence (looked up)": "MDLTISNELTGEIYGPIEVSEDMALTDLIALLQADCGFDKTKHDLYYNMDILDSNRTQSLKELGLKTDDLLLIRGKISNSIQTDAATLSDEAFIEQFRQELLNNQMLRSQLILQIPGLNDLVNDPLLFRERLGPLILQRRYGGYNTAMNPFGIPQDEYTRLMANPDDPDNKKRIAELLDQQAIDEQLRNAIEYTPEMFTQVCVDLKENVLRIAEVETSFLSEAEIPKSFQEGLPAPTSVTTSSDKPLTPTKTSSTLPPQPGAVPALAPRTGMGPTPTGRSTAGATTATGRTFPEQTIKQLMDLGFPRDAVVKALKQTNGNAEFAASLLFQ",
  "assay": "co-IP",
  "data": [
    {"binder": "B1", "values": [
      {"measurement": "fold more Cdc48 bound, normalized for the amount of precipitated Ddi1^Δ202-299", "value": 2.1, "unit": "fold"}
    ]}
  ]
}
